Patent publication US20220411483A1 (Chugai, published 2022)
One block for each binder: values may come before it.

Key:
[1] = biological target: T1, FcγRIIb extracellular domain with C-terminal His tag (human, UniProt P31994 43-217); assay: SPR, antibody captured, FcgR analyte
T1 construct: extracellular domain; also called FcgRIIb; not shown: His tag at the C terminus
T1 sequence (looked up): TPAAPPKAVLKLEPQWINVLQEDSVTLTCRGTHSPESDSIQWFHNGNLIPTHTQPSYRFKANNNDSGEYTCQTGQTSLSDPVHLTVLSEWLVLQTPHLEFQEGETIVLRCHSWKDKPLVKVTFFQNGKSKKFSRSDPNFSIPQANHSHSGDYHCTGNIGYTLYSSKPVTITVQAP

[2] = biological target: T2, FcγRIa extracellular domain with C-terminal His tag (human, UniProt P12314 16-292); assay: SPR, antibody captured, FcgR analyte
T2 construct: also called FcgRIa; CD64; not shown: His tag at the C terminus

[3] = biological target: T3, FcγRIIa R type extracellular domain with C-terminal His tag (human, UniProt P12318 34-217); assay: SPR, antibody captured, FcgR analyte
T3 construct: extracellular domain; also called FcgRIIaR; not shown: His tag at the C terminus
T3 sequence (looked up): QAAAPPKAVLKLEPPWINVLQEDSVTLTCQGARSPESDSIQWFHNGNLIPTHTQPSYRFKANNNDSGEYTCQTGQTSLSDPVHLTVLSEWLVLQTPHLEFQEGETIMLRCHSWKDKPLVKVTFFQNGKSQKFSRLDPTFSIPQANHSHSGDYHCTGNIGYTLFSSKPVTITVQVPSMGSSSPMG

[4] = biological target: T4, human FcγRIIa R type extracellular domain with C-terminal His tag (human, UniProt P12318 34-217); assay: SPR, KD of IL6R-G1d/IL6R-L divided by KD of variant
T4 construct: extracellular domain; also called FcgRIIaR
T4 sequence (looked up): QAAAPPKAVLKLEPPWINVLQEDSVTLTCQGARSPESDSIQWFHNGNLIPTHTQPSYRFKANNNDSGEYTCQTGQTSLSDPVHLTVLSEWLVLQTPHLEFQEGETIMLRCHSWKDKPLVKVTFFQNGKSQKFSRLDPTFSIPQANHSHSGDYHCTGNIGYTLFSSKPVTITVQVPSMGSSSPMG

[5] = biological target: T5, human FcγRIIb extracellular domain with C-terminal His tag (human, UniProt P31994 43-217); assay: as above
T5 construct: extracellular domain; also called FcgRIIb
T5 sequence (looked up): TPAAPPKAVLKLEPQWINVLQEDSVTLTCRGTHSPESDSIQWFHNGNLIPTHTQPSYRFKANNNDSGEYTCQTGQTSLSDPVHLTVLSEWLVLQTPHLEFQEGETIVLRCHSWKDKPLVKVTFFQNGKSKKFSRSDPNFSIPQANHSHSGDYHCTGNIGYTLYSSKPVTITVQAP

[6] = biological target: T6, human FcγRIIa H type extracellular domain with C-terminal His tag (human, UniProt P12318 34-217); assay: as above
T6 construct: extracellular domain; also called FcgRIIaH
T6 sequence (looked up): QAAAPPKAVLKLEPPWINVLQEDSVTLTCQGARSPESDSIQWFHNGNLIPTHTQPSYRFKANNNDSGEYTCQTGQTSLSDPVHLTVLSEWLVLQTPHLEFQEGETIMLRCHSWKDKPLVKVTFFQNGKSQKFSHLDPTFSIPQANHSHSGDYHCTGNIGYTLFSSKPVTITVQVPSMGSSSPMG

[7] = biological target: T7, human FcγRIa extracellular domain with C-terminal His tag (human, UniProt P12314 16-292); assay: as above
T7 construct: Whole entry named; also called FcgRIa

[8] = biological target: T8, human FcγRIIIa V type extracellular domain with C-terminal His tag (human, UniProt P08637 17-208); assay: as above
T8 construct: extracellular domain; also called FcgRIIIaV

FcgRIIb = biological target: T9, FcgRIIb (human, UniProt P31994 43-217); assay: SPR, amount bound per captured antibody
T9 construct: extracellular domain; also called FcγRIIb
T9 sequence (looked up): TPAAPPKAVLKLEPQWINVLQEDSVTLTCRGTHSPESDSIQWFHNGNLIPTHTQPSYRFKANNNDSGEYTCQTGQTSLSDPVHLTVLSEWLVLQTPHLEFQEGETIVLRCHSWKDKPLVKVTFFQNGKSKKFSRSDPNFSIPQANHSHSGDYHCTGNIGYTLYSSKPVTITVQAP

FcgRIIaR = biological target: T10, FcgRIIaR (human, UniProt P12318 34-217); assay: SPR, amount bound per captured antibody
T10 construct: extracellular domain; also called FcγRIIa R type; FcγRIIa (R type)
T10 sequence (looked up): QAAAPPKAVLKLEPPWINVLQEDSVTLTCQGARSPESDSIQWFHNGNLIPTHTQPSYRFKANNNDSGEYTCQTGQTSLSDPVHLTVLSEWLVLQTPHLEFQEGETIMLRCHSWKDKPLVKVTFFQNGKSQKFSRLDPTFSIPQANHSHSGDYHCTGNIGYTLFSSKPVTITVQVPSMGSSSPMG

T7 sequence (P12314 16-292): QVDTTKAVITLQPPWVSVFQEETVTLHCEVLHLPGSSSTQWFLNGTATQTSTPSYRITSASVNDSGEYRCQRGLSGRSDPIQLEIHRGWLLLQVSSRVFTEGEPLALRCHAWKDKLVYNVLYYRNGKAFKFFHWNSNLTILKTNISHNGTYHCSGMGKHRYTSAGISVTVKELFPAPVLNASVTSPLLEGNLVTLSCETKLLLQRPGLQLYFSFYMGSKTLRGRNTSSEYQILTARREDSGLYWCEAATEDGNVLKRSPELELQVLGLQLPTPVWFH
T2 sequence (P12314 16-292): as above
T8 sequence (P08637 17-208 F176V): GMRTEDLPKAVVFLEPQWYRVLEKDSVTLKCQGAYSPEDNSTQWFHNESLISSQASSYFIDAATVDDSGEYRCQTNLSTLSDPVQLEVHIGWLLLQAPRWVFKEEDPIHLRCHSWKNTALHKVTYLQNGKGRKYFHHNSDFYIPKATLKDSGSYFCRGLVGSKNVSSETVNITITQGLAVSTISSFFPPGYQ

Kd [1]: 18 nM
Kd [2]: 9.4 nM
Kd [3]: 510 nM
B1: IL6R-BP561/IL6R-L (antibody, human IgG1, kappa, name in EU numbering)
heavy: QVQLQESGPGLVKPSETLSLTCAVSGHSISHDHAWSWVRQPPGEGLEWIGFISYSGITNYNPSLQGRVTISRDNSKNTLYLQMNSLRAEDTAVYYCARSLARTTAMDYWGEGTLVTVSSASTKGPSVFPLAPSSKSTSGGTAALGCLVKDYFPEPVTVSWNSGALTSGVHTFPAVLQSSGLYSLSSVVTVPSSSLGTQTYICNVNHKPSNTKVDKKVEPKSCDKTHTCPPCPAPDLLGDDSVFLFPPKPKDTLMISRTPEVTCVVVDVSDEDGDVKFNWYVDGVEVHNAKTKPREEQDNSTYRVVSVLTVLHQDWLNGKEYKCKVSNKALPRPIEKTISKAKGQPREPQVYTLPPSRDELTKNQVSLTCLVKGFYPSDIAVEWESNGQPENNYKTTPPVLDSDGSFFLYSKLTVDKSRWQQGNVFSCSVMHEALHNHYTQESLSLSP
light: not shown
notes: human IgG1

Relative FcgRIIaR-binding Activity [4]: 0.92
Relative FcgRIIb-binding Activity [5]: 75
Relative FcgRIIaH-binding Activity [6]: 0.044
Relative FcgRIa-binding Activity [7]: 0.451
Relative FcgRIIIaV-binding Activity [8]: 0.012
B2: IL6R-P587/IL6R-L (antibody, human IgG1, kappa)
heavy: QVQLQESGPGLVKPSETLSLTCAVSGHSISHDHAWSWVRQPPGEGLEWIGFISYSGITNYNPSLQGRVTISRDNSKNTLYLQMNSLRAEDTAVYYCARSLARTTAMDYWGEGTLVTVSSASTKGPSVFPLAPSSKSTSGGTAALGCLVKDYFPEPVTVSWNSGALTSGVHTFPAVLQSSGLYSLSSVVTVPSSSLGTQTYICNVNHKPSNTKVDKKVEPKSCDKTHTCPPCPAPDLLGGDSVFLFPPKPKDTLMISRTPEVTCVVIDVAEEDGEVKFNWYVDGVEVHNAKTKPREEQYNSTYRVVSVLTVLHQDWLNGKEYKCKVSNKALPAPIEKTISKAKGQPREPQVYTLPPSRDELTKNQVSLTCLVKGFYPSDIAVEWESNGQPENNYKTTPPVLDSDGSFFLYSKLTVDKSRWQQGNVFSCSVMHEALHNHYTQKSLSLSP
light: not shown

Relative FcgRIIb-binding Activity (FcgRIIb): 305 IL6R-G1d/IL6R-L=100
Relative FcgRIIaR-binding Activity (FcgRIIaR): 83.8 IL6R-G1d/IL6R-L=100
B3: IL6R-P555/IL6R-L (antibody, human IgG1, kappa)
heavy: QVQLQESGPGLVKPSETLSLTCAVSGHSISHDHAWSWVRQPPGEGLEWIGFISYSGITNYNPSLQGRVTISRDNSKNTLYLQMNSLRAEDTAVYYCARSLARTTAMDYWGEGTLVTVSSASTKGPSVFPLAPSSKSTSGGTAALGCLVKDYFPEPVTVSWNSGALTSGVHTFPAVLQSSGLYSLSSVVTVPSSSLGTQTYICNVNHKPSNTKVDKKVEPKSCDKTHTCPPCPAPELLGDDSVFLFPPKPKDTLMISRTPEVTCVVVDVSDEDGEVKFNWYVDGVEVHNAKTKPREEQYNSTYRVVSVLTVLHQDWLNGKEYKCKVSNKALPAPIEKTISKAKGQPREPQVYTLPPSRDELTKNQVSLTCLVKGFYPSDIAVEWESNGQPENNYKTTPPVLDSDGSFFLYSKLTVDKSRWQQGNVFSCSVMHEALHNHYTQKSLSLSP
light: not shown
